Experimental data published in patent US20210221899A1 (published 2021).

How the values were obtained:
[1] = target: T1, rat NGF (rat, UniProt P25427 122-241); experiment: SPR (Biacore), NGF amine-coupled on chip, antibody injected
T1 construct: also called rN
Description: (§1) Antibody binding affinities of the antibodies against canine NGF were determined by surface plasmon resonance (SPR) on a Biacore system (Biocore Life Sciences (GE Healthcare), Uppsala, Sweden). Immobilization of canine and rat NGF were obtained by amine coupling […] NGF using N-hydroxysuccinimide (NHS)/1-Ethyl-3-(3-dimethylaminopropyl) carbodiimide (EDC) chemistry. Chips were quenched with ethanolamine and the affinity with which all candidate mAbs bound to the immobilized NGF was evaluated. Various concentrations of canine and felinized anti-NGF antibodies were injected over the NGF surfaces while the association of the antibody to the antigen and the dissociation of the formed complex were monitored in real time. Kinetic analysis was performed to obtain the equilibrium dissociation constant (KD).

[2] = target: T2, canine NGF (canine, UniProt Q29074 110-229 (pig entry), limits assumed); experiment: as above
T2 construct: The protein was secreted from CHO cells and purified; also called cNGF; canine β-NGF
T2 chain: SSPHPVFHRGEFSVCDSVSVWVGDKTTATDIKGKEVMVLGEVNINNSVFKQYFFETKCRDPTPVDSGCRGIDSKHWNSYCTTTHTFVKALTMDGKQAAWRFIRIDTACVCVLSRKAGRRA
Description: as §1

[3] = target: T1, rat NGF; experiment: SPR (Biacore T200), 100 nM mAb on NGF chip, similarity to parent mAb
Summary of the method: (§2)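 CDR alanine-scan mutants of the anti-NGF mAb were each run at 100 nM over an NGF-coated Biacore T200 chip. A threshold band was set from the mean response units of four parent-mAb replicates ±3 SD, covering both on- and off-rate phases. The score is the percentage of each mutant's data points falling inside that band.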

[4] = target: T2, canine NGF; experiment: as above
Summary of the method: as §2

[5] = target: T3, human NGF (human, UniProt P01138 122-241); experiment: as above
T3 construct: also called human Nerve Growth Factor; hN
T3 chain: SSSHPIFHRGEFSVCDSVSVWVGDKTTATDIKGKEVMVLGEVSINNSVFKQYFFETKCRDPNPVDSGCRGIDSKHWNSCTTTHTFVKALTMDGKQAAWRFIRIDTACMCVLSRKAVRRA
Summary of the method: as §2

[6] = target: T3, human NGF; experiment: SPR (Biacore), human NGF amine-coupled on chip, antibody injected
Description: Antibody binding affinities of the antibodies against human NGF (SEQ ID NO.66) were determined by surface plasmon resonance (SPR). Human NGF was immobilized on the surface of a BIACORE chip by direct amine coupling. Various concentrations of the described humanized anti-NGF antibodies were injected over the human NGF surfaces while the association of the antibody to the antigen and the dissociation of the formed complex were monitored in real time. Kinetic analysis was performed to obtain the equilibrium dissociation constant (KD).

T1 sequence (P25427 122-241 limits assumed): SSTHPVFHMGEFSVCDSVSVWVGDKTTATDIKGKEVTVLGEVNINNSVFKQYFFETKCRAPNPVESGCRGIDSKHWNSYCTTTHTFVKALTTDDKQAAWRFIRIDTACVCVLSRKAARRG

Row | Binder | Kd [6] [nM] | koff [6] [s⁻¹] | kon [6] [M⁻¹ s⁻¹] | other results
1 | ZTS-842 (antibody, V domains shown, Canine mAb; also called 48L2; can48L2) VH: EVQLVESGGDLVKPGGSLRLSCVASGFTFSTYGINWVRQAPGKGLQWVAYISSGGSSTYYADPVKGRFTISRDDAKNMLYLQMNSLRAEDTAIYYCAGSRYTYAYGGGYEFHFWGQGTLVTVSS VL: QAVLNQPASVSGALGQKVTISCSGSTMDIDIFGVSWYQQLPGKAPKLLVDSDGDRPSGIPDRFSGSRSGNSGTLTITGLQAEDEADYHCQSGDSTLGALAIFGGGTHVTVL |  |  |  | Kd [1]: 0.00325 nM; koff [1]: 1.42e-06 s⁻¹; kon [1]: 573000 M⁻¹ s⁻¹; Kd [2]: 0.0217 nM; koff [2]: 2.27e-05 s⁻¹; kon [2]: 703000 M⁻¹ s⁻¹
2 | can48L2VL_T26A (antibody, V domains shown, CDR scanning mutant of ZTS-842 (48L2)) VH: EVQLVESGGDLVKPGGSLRLSCVASGFTFSTYGINWVRQAPGKGLQWVAYISSGGSSTYYADPVKGRFTISRDDAKNMLYLQMNSLRAEDTAIYYCAGSRYTYAYGGGYEFHFWGQGTLVTVSS VL: QAVLNQPASVSGALGQKVTISCSGSAMDIDIFGVSWYQQLPGKAPKLLVDSDGDRPSGIPDRFSGSRSGNSGTLTITGLQAEDEADYHCQSGDSTLGALAIFGGGTHVTVL |  |  |  | Percent Similarity Score (KD on rN) [3]: 98%; Percent Similarity Score (KD on cN) [4]: 97.3%; Percent Similarity Score (KD on hN) [5]: 99.8%
3 | humanized mAb can48L2VH_HM855323.1 / can48L2VL_Z22192.1 (antibody, V domains shown) VH: EVQLVESGGGLVKPGGSLRLSCAASGFTFSTYGINWVRQAPGKGLEWVSYISSGGSSTYYADSVKGRFTISRDNAKNSLYLQMNSLRAEDTAVYYCAGSRYTYAYGGGYEFHFWGQGTLVTVSS VL: QSVVTQPPSVSGAPGQRVTISCTGSTMDIDIFGVSWYQQLPGTAPKLLIYGDGDRPSGVPDRFSGSKSGASASLAITGLQAEDEADYHCQSGDSTLGALAIFGGGTHVTVL | 1.54 | 0.000256 | 167000 | 
4 | can48L2VL_T95A (antibody, V domains shown, CDR scanning mutant of ZTS-842 (48L2)) VH: EVQLVESGGDLVKPGGSLRLSCVASGFTFSTYGINWVRQAPGKGLQWVAYISSGGSSTYYADPVKGRFTISRDDAKNMLYLQMNSLRAEDTAIYYCAGSRYTYAYGGGYEFHFWGQGTLVTVSS VL: QAVLNQPASVSGALGQKVTISCSGSTMDIDIFGVSWYQQLPGKAPKLLVDSDGDRPSGIPDRFSGSRSGNSGTLTITGLQAEDEADYHCQSGDSALGALAIFGGGTHVTVL |  |  |  | Percent Similarity Score (KD on rN) [3]: 99.4%; Percent Similarity Score (KD on cN) [4]: 94.9%; Percent Similarity Score (KD on hN) [5]: 99.6%
5 | humanized mAb can48L2VH_HM855336.1 / can48L2VL_Z22192.1_P14L (antibody, V domains shown) VH: EVQLVESGGGLVQPGGSLRLSCAASGFTFSTYGMNWVRQAPGKGLEWVSYISSGGSSIYYADSVKGRFTISRDNAKNSLYLQMNSLRAEDTAVYYCAGSRYTYAYGGGYEFHFWGQGTLVTVSS VL: QSVVTQPPSVSGALGQRVTISCTGSTMDIDIFGVSWYQQLPGTAPKLLIYGDGDRPSGVPDRFSGSKSGASASLAITGLQAEDEADYHCQSGDSTLGALAIFGGGTHVTVL | 1.49 | 0.000422 | 283000 | 
6 | humanized mAb can48L2VH_HM855336.1 / can48L2VL_Z22192.1 (antibody, V domains shown) VH: EVQLVESGGGLVQPGGSLRLSCAASGFTFSTYGMNWVRQAPGKGLEWVSYISSGGSSIYYADSVKGRFTISRDNAKNSLYLQMNSLRAEDTAVYYCAGSRYTYAYGGGYEFHFWGQGTLVTVSS VL: QSVVTQPPSVSGAPGQRVTISCTGSTMDIDIFGVSWYQQLPGTAPKLLIYGDGDRPSGVPDRFSGSKSGASASLAITGLQAEDEADYHCQSGDSTLGALAIFGGGTHVTVL | 1.25 | 0.000337 | 269000 | 
7 | humanized mAb can48L2VH_HM855323.1 / can48L2VL_Z22192.1_P8A (antibody, V domains shown) VH: EVQLVESGGGLVKPGGSLRLSCAASGFTFSTYGINWVRQAPGKGLEWVSYISSGGSSTYYADSVKGRFTISRDNAKNSLYLQMNSLRAEDTAVYYCAGSRYTYAYGGGYEFHFWGQGTLVTVSS VL: QSVVTQPASVSGAPGQRVTISCTGSTMDIDIFGVSWYQQLPGTAPKLLIYGDGDRPSGVPDRFSGSKSGASASLAITGLQAEDEADYHCQSGDSTLGALAIFGGGTHVTVL | 1.54 | 0.000315 | 205000 | 
8 | humanized mAb can48L2VH_HM855323.1 / can48L2VL_Z22192.1_P14L (antibody, V domains shown) VH: EVQLVESGGGLVKPGGSLRLSCAASGFTFSTYGINWVRQAPGKGLEWVSYISSGGSSTYYADSVKGRFTISRDNAKNSLYLQMNSLRAEDTAVYYCAGSRYTYAYGGGYEFHFWGQGTLVTVSS VL: QSVVTQPPSVSGALGQRVTISCTGSTMDIDIFGVSWYQQLPGTAPKLLIYGDGDRPSGVPDRFSGSKSGASASLAITGLQAEDEADYHCQSGDSTLGALAIFGGGTHVTVL | 0.00102 | 1.46e-07 | 144000 | 
9 | humanized mAb can48L2VH_HM855336.1 / can48L2VL_Z22192.1_P8A (antibody, V domains shown) VH: EVQLVESGGGLVQPGGSLRLSCAASGFTFSTYGMNWVRQAPGKGLEWVSYISSGGSSIYYADSVKGRFTISRDNAKNSLYLQMNSLRAEDTAVYYCAGSRYTYAYGGGYEFHFWGQGTLVTVSS VL: QSVVTQPASVSGAPGQRVTISCTGSTMDIDIFGVSWYQQLPGTAPKLLIYGDGDRPSGVPDRFSGSKSGASASLAITGLQAEDEADYHCQSGDSTLGALAIFGGGTHVTVL | 0.841 | 0.000212 | 252000 | 
10 | ZTS-841 (antibody, V domains shown, Canine mAb; also called 9L12; can9L12) VH: EVQLVESGGDLVKPGGSLRLSCVASGFTFSSHGMHWVRQSPGKGLQWVAVINSGGSSTYYTDAVKGRFTISRDNAKNTVYLQMNSLRAEDTAMYYCAKESVGGWEQLVGPHFDYWGQGTLVIVSS VL: QSVLTQPTSVSGSLGQRVTISCSGSTNNIGILGASWYQLFPGKAPKLLVYGNGNRPSGVPDRFSGADSGDSVTLTITGLQAEDEADYYCQSFDTTLGAHVFGGGTHLTVL |  |  |  | Kd [1]: 0.108 nM; koff [1]: 4.61e-05 s⁻¹; kon [1]: 587000 M⁻¹ s⁻¹; Kd [2]: 0.0506 nM; koff [2]: 2.36e-05 s⁻¹; kon [2]: 527000 M⁻¹ s⁻¹
11 | humanized mAb can9L12VH_HM855939 / can9L12VL (antibody, V domains shown) VH: QVQLVESGGGVVQPGGSLRLSCAASGFTFSSHGMHWVRQAPGKGLEWVSVINSGGSSTYYADSVKGRFTISRDNSKNTLYLQMNSLRAEDTAVYYCAKESVGGWEQLVGPHFDYWGQGTLVIVSS VL: QSVLTQPTSVSGSLGQRVTISCSGSTNNIGILGASWYQLFPGKAPKLLVYGNGNRPSGVPDRFSGADSGDSVTLTITGLQAEDEADYYCQSFDTTLGAHVFGGGTHLTVL | 4.12 | 0.00161 | 390000 | 
12 | can9L12VH_D113A (antibody, V domains shown) VH: EVQLVESGGDLVKPGGSLRLSCVASGFTFSSHGMHWVRQSPGKGLQWVAVINSGGSSTYYTDAVKGRFTISRDNAKNTVYLQMNSLRAEDTAMYYCAKESVGGWEQLVGPHFAYWGQGTLVIVSS VL: QSVLTQPTSVSGSLGQRVTISCSGSTNNIGILGASWYQLFPGKAPKLLVYGNGNRPSGVPDRFSGADSGDSVTLTITGLQAEDEADYYCQSFDTTLGAHVFGGGTHLTVL |  |  |  | Percent Similarity Score (KD on rN) [3]: 100%; Percent Similarity Score (KD on cN) [4]: 100%; Percent Similarity Score (KD on hN) [5]: 100%
13 | can9L12VH_I50A (antibody, V domains shown) VH: EVQLVESGGDLVKPGGSLRLSCVASGFTFSSHGMHWVRQSPGKGLQWVAVANSGGSSTYYTDAVKGRFTISRDNAKNTVYLQMNSLRAEDTAMYYCAKESVGGWEQLVGPHFDYWGQGTLVIVSS VL: QSVLTQPTSVSGSLGQRVTISCSGSTNNIGILGASWYQLFPGKAPKLLVYGNGNRPSGVPDRFSGADSGDSVTLTITGLQAEDEADYYCQSFDTTLGAHVFGGGTHLTVL |  |  |  | Percent Similarity Score (KD on rN) [3]: 92%; Percent Similarity Score (KD on cN) [4]: 100%; Percent Similarity Score (KD on hN) [5]: 96.6%
14 | humanized mAb can9L12VH / can9L12VL_M94116_65698 (antibody, V domains shown) VH: EVQLVESGGDLVKPGGSLRLSCVASGFTFSSHGMHWVRQSPGKGLQWVAVINSGGSSTYYTDAVKGRFTISRDNAKNTVYLQMNSLRAEDTAMYYCAKESVGGWEQLVGPHFDYWGQGTLVIVSS VL: QSVLTQPTSVSGAPGQRVTISCTGSTNNIGILGVHWYQQLPGTAPKLLIYGNGNRPSGVPDRFSGADSGDSVSLAITGLQAEDEADYYCQSFDTTLGAHVFGGGTHLTVL | 9.19 | 0.00197 | 214000 | 
15 | humanized mAb can9L12VH_X92218 / can9L12VL (antibody, V domains shown) VH: EVQLVESGGGLVQPGGSLRLSCAASGFTFSSHGMSWVRQAPGKGLEWVSVINSGGSSTYYADSVKGRFTISRDNSKNTLYLQMNSLRAEDTAVYYCAKESVGGWEQLVGPHFDYWGQGTLVIVSS VL: QSVLTQPTSVSGSLGQRVTISCSGSTNNIGILGASWYQLFPGKAPKLLVYGNGNRPSGVPDRFSGADSGDSVTLTITGLQAEDEADYYCQSFDTTLGAHVFGGGTHLTVL | 0.126 | 3.78e-05 | 301000 | 
